Reference: patent US20030118612A1 (MAXYGEN, published 2003)

T1: human G-CSF receptor (human, UniProt Q99062 25-836)
T1 sequence (looked up): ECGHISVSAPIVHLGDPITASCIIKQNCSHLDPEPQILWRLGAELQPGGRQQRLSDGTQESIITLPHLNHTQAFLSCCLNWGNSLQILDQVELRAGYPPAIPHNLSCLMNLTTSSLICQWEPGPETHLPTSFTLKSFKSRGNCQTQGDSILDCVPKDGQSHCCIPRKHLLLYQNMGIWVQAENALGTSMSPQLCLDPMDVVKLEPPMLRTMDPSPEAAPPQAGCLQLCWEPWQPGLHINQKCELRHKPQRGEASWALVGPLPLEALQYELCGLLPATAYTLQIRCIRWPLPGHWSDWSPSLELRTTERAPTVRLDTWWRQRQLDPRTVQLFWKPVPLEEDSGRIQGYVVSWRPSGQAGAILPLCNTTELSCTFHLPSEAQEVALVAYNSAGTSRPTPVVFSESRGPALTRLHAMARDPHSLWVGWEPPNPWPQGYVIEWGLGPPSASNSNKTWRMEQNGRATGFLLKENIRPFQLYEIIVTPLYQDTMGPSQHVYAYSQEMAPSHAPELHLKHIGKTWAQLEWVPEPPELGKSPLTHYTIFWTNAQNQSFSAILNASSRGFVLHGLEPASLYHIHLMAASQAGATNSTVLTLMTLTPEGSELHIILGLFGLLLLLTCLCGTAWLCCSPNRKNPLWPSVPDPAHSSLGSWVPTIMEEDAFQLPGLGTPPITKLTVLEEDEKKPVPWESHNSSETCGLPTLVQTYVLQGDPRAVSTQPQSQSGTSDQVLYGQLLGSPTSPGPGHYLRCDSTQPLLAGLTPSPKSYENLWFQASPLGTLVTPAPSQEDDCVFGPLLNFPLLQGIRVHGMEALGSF


Target: T1, human G-CSF receptor
Experiment: cell-based or functional assay

| Binder | EC50 [pM] |
| --- | --- |
| non-conjugated hG-CSF (Neupogen®) (ligand) MTPLGPASSLPQSFLLKCLEQVRKIQGDGAALQEKLCATYKLCHPEELVLLGHSLGIPWAPLSSCPSQALQLAGCLSQLHSGLFLYQGLLQALEGISPELGPTLDTLQLDVADFATTIWQQMEELGMAPALQPTQGAMPAFASAFQRRAGGVLVASHLQSFLEVSYRVLRHLAQP | 30 |

Target: T1, human G-CSF receptor
Experiment: cell-based or functional assay
Remark: another data set of the same source

| Binder | EC50 (% of hG-CSF) non-conjugated |
| --- | --- |
| G-CSF variant K16/34/40R Q70K Q90K Q120K, non-conjugated (ligand) TPLGPASSLPQSFLLRCLEQVRKIQGDGAALQERLCATYRLCHPEELVLLGHSLGIPWAPLSSCPSQALKLAGCLSQLHSGLFLYQGLLKALEGISPELGPTLDTLQLDVADFATTIWQKMEELGMAPALQPTQGAMPAFASAFQRRAGGVLVASHLQSFLEVSYRVLRHLAQP | 20 % of hG-CSF |

Target: T1, human G-CSF receptor
Experiment: cell-based or functional assay
Remark: another data set of the same source

| Binder | EC50 (% of hG-CSF) conjugated to SPA-PEG 12000 | EC50(% of hG-CSF) conjugated to SPA-PEG 20000 |
| --- | --- | --- |
| G-CSF variant K16/34/40R conjugated to SPA-PEG 12000 (ligand, conjugated to SPA-PEG 12000) TPLGPASSLPQSFLLRCLEQVRKIQGDGAALQERLCATYRLCHPEELVLLGHSLGIPWAPLSSCPSQALQLAGCLSQLHSGLFLYQGLLQALEGISPELGPTLDTLQLDVADFATTIWQQMEELGMAPALQPTQGAMPAFASAFQRRAGGVLVASHLQSFLEVSYRVLRHLAQP | 10 % of hG-CSF | – |
| G-CSF variant K16/34/40R T105K S159K conjugated to SPA-PEG 12000 (ligand, conjugated to SPA-PEG 12000) TPLGPASSLPQSFLLRCLEQVRKIQGDGAALQERLCATYRLCHPEELVLLGHSLGIPWAPLSSCPSQALQLAGCLSQLHSGLFLYQGLLQALEGISPELGPTLDKLQLDVADFATTIWQQMEELGMAPALQPTQGAMPAFASAFQRRAGGVLVASHLQKFLEVSYRVLRHLAQP | 6 % of hG-CSF | – |
| G-CSF variant K16/34/40R Q90K conjugated to SPA-PEG 20000 (ligand, conjugated to SPA-PEG 20000) TPLGPASSLPQSFLLRCLEQVRKIQGDGAALQERLCATYRLCHPEELVLLGHSLGIPWAPLSSCPSQALQLAGCLSQLHSGLFLYQGLLKALEGISPELGPTLDTLQLDVADFATTIWQQMEELGMAPALQPTQGAMPAFASAFQRRAGGVLVASHLQSFLEVSYRVLRHLAQP | – | 7 % of hG-CSF |
| G-CSF variant K16/34/40R Q90K T105K S159K conjugated to SPA-PEG 12000 (ligand, conjugated to SPA-PEG 12000) TPLGPASSLPQSFLLRCLEQVRKIQGDGAALQERLCATYRLCHPEELVLLGHSLGIPWAPLSSCPSQALQLAGCLSQLHSGLFLYQGLLKALEGISPELGPTLDKLQLDVADFATTIWQQMEELGMAPALQPTQGAMPAFASAFQRRAGGVLVASHLQKFLEVSYRVLRHLAQP | 1 % of hG-CSF | – |
| G-CSF variant K16/34/40R Q70K Q90K conjugated to SPA-PEG 12000 (ligand, conjugated to SPA-PEG 12000) TPLGPASSLPQSFLLRCLEQVRKIQGDGAALQERLCATYRLCHPEELVLLGHSLGIPWAPLSSCPSQALKLAGCLSQLHSGLFLYQGLLKALEGISPELGPTLDTLQLDVADFATTIWQQMEELGMAPALQPTQGAMPAFASAFQRRAGGVLVASHLQSFLEVSYRVLRHLAQP | 8 % of hG-CSF | – |
| G-CSF variant K16/34/40R T105K S159K conjugated to SPA-PEG 20000 (ligand, conjugated to SPA-PEG 20000) TPLGPASSLPQSFLLRCLEQVRKIQGDGAALQERLCATYRLCHPEELVLLGHSLGIPWAPLSSCPSQALQLAGCLSQLHSGLFLYQGLLQALEGISPELGPTLDKLQLDVADFATTIWQQMEELGMAPALQPTQGAMPAFASAFQRRAGGVLVASHLQKFLEVSYRVLRHLAQP | – | 5 % of hG-CSF |
| G-CSF variant K16/34/40R Q90K T105K S159K conjugated to SPA-PEG 20000 (ligand, conjugated to SPA-PEG 20000) TPLGPASSLPQSFLLRCLEQVRKIQGDGAALQERLCATYRLCHPEELVLLGHSLGIPWAPLSSCPSQALQLAGCLSQLHSGLFLYQGLLKALEGISPELGPTLDKLQLDVADFATTIWQQMEELGMAPALQPTQGAMPAFASAFQRRAGGVLVASHLQKFLEVSYRVLRHLAQP | – | < 1 % of hG-CSF |
| G-CSF variant K16/34/40R Q90K T105K conjugated to SPA-PEG 12000 (ligand, conjugated to SPA-PEG 12000) TPLGPASSLPQSFLLRCLEQVRKIQGDGAALQERLCATYRLCHPEELVLLGHSLGIPWAPLSSCPSQALQLAGCLSQLHSGLFLYQGLLKALEGISPELGPTLDKLQLDVADFATTIWQQMEELGMAPALQPTQGAMPAFASAFQRRAGGVLVASHLQSFLEVSYRVLRHLAQP | 1 % of hG-CSF | – |
| G-CSF variant K16/34/40R Q90K T105K conjugated to SPA-PEG 20000 (ligand, conjugated to SPA-PEG 20000) TPLGPASSLPQSFLLRCLEQVRKIQGDGAALQERLCATYRLCHPEELVLLGHSLGIPWAPLSSCPSQALQLAGCLSQLHSGLFLYQGLLKALEGISPELGPTLDKLQLDVADFATTIWQQMEELGMAPALQPTQGAMPAFASAFQRRAGGVLVASHLQSFLEVSYRVLRHLAQP | – | < 1 % of hG-CSF |
| G-CSF variant K16/34/40R conjugated to SPA-PEG 20000 (ligand, conjugated to SPA-PEG 20000) TPLGPASSLPQSFLLRCLEQVRKIQGDGAALQERLCATYRLCHPEELVLLGHSLGIPWAPLSSCPSQALQLAGCLSQLHSGLFLYQGLLQALEGISPELGPTLDTLQLDVADFATTIWQQMEELGMAPALQPTQGAMPAFASAFQRRAGGVLVASHLQSFLEVSYRVLRHLAQP | – | 1 % of hG-CSF |
